Three molecules from US20250145711A1 (Janssen / Centocor, published 2025) can be followed below.

Assay [1] has as its target T1, Human CD79b long isoform, recombinant extracellular domain (CD9W8.001) (human, UniProt P40259 29-159).
T1 construct: extracellular domain; also called hu CD79b long
T1 sequence (looked up): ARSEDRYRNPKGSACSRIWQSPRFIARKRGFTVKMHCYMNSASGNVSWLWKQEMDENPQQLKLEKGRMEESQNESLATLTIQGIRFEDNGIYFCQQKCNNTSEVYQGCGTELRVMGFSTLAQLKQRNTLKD
The experiment in a line: SPR Biacore 8K, antibody captured by anti-human Fc, CD79b in solution, 25 C, 1:1 Langmuir. The protocol:
(§1) General Protocol for SPR Affinity Assessment: Affinity assessment of the bispecific and trispecific constructs against human CD79b were measured using recombinantly expressed extracellular domain of CD79b short and long isoforms (CD9W7.001 and CD9W8.001, respectively) by Surface Plasmon Resonance (SPR) using a Biacore 8 k SPR system (Biacore) at 25° C. in HBSP+ buffer. Cross-reactivity of the same antibody panel was also assessed against cyno and mouse antigens (CD9W1.001 and CD9W105.001, respectively). Briefly, a C1 sensor chip was immobilized with anti-human Fc (target immobilization levels of >400 RU) using vendor recommended amino coupling protocol. The test antibodies were captured through immobilized anti-Fc and was followed by the injection of different CD79b constructs at different concentration series (human CD79b short and long isoforms: 30 nM-0.37 nM at 3-fold dilutions; cyno and mouse CD79b: 3000 nM-37 nM at 3-fold dilutions). The association and dissociation phases were measured for 2 or 3 minutes and 30 minutes, respectively.
(§2) The raw binding sensorgrams were processed using Biacore Insight software (Biacore) by double-referencing and the processed sensorgrams were analyzed for cross-reactivity and fitted to a 1:1 Langmuir model to obtain on-rates, off-rates and affinities.
For orientation: In SPR one partner is held on a chip, and binding of the other changes the refractive index at the surface.

Assay [2] has as its target T2, Human CD79b short isoform, recombinant extracellular domain (CD9W7.001) (human, UniProt P40259 29-159).
T2 chain: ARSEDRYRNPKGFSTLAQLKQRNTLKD
The assay is described as above. The procedure: as §1, §2

In assay [3] the target is T3, Human CD79b, endogenous on diffuse large B-cell lymphoma cell lines (human, UniProt P40259 29-229).
T3 construct: On HBL-1, OCI-LY10 and Carnaval cells, which also carry CD20; also called Igβ
T3 sequence: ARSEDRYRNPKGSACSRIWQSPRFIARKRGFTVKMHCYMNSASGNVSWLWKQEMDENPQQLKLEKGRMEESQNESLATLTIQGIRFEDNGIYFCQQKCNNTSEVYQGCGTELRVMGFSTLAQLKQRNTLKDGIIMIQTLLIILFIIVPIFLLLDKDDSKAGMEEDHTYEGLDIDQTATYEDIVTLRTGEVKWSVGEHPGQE
The assay is described as follows: flow cytometry on HBL-1 cells (endogenous CD79b), 1 h 37 C, anti-human IgG AF647. The procedure: (§3) All cells were washed with BD stain buffer (BD Biosciences; Cat #554657), centrifuged at 1200 RPM for 3 minutes, with supernatant discarded. […] All cells were washed with BD stain buffer (BD Biosciences; Cat #554657), centrifuged at 1200 RPM for 3 mins, with supernatant discarded. Cells were analyzed using Intellicyt (Sartorius) flow cytometer and mean fluorescent intensity (MFI) was generated using Forcyt software (Sartorius). MFI was graphed and EC50 values generated using GraphPad PRISM v.8. Dose response curves were generated by transforming the x axis values using the formula […]. Data was then graphed using non-linear regression curve fit analysis “log(agonist) vs. response-variable slope (four parameter)”.
Background: A flow cytometer gives signals particle by particle.

Assay [4] concerns the target T3, Human CD79b, endogenous on diffuse …. The assay is described as follows: flow cytometry on Carnaval cells (endogenous CD79b), 1 h 37 C, anti-human IgG AF647. The procedure: as §3
For assay [5] the target is unchanged. The experiment in a line: flow cytometry on Carnaval cells; bispecific control in the trispecific table. The protocol: as §3
Assay [6] shares this target. The experiment in a line: flow cytometry on HBL-1 cells; bispecific control in the trispecific table. The procedure: as §3
For assay [7] the target is unchanged. The assay is described as follows: flow cytometry on HBL-1 cells (endogenous CD79b and CD20; the trispecific also has a CD20 arm).
Assay [8] shares this target. The assay is described as follows: flow cytometry on Carnaval cells (endogenous CD79b and CD20; the trispecific also has a CD20 arm).
The target is the same in assay [9]. The experiment in a line: flow cytometry on OCI-LY10 cells (endogenous CD79b and CD20; the trispecific also has a CD20 arm).

B1: 79C3B646 (bispecific antibody, human IgG1, lambda, L234A L235A)
heavy: QVQLQQSGPGLVKPSQTLSLTCAISGDSVSSNSATWNWIRQSPSRGLEWLGRTYYRSKWYNDYTVSVKSRITINPDTSKNQFSLQLNSVTPEDTAVYYCTRVDIAFDYWGQGTLVTVSSASTKGPSVFPLAPSSKSTSGGTAALGCLVKDYFPEPVTVSWNSGALTSGVHTFPAVLQSSGLYSLSSVVTVPSSSLGTQTYICNVNHKPSNTKVDKKVEPKSCDKTHTCPPCPAPEAAGGPSVFLFPPKPKDTLMISRTPEVTCVVVSVSHEDPEVKFNWYVDGVEVHNAKTKPREEQYNSTYRVVSVLTVLHQDWLNGKEYKCKVSNKALPAPIEKTISKAKGQPREPQVYTLPPSREEMTKNQVSLSCAVKGFYPSDIAVEWESNGQPENNYKTTPPVLDSDGSFFLVSKLTVDKSRWQQGNVFSCSVMHEALHNRFTQKSLSLSPGK
light: QTVVTQPPSVSEAPRQRVTISCSGSSSNIGNHGVNWYQQLPGKAPKLLIYNDDLLPSGVSDRFSGSTSGTSGSLAISGLQSEDEADYYCAAWDDSLNGVVFGGGTKLTVLGQPKAAPSVTLFPPSSEELQANKATLVCLISDFYPGAVTVAWKADSSPVKAGVETTTPSKQSNNKYAASSYLSLTPEQWKSHRSYSCQVTHEGSTVEKTVAPTECS
chain: EIVLTQSPATLSASPGERVTLSCSASSSVSYMNWYQQKPGQAPRRWIYDSSKLASGVPARFSGSGSGRDYTLTISSLEPEDFAVYYCQQWSRNPPTFGGGTKVEIKGGSEGKSSGSGSESKSTGGSQVQLVQSGAEVKKPGSSVKVSCKASGYTFTRSTMHWVKQAPGQGLEWIGYINPSSAYTNYNQKFQGRVTLTADKSTSTAYMELSSLRSEDTAVYYCASPQVHYDYAGFPYWGQGTLVTVSSEPKSSDKTHTCPPCPAPEAAGGPSVFLFPPKPKDTLMISRTPEVTCVVVSVSHEDPEVKFNWYVDGVEVHNAKTKPREEQYNSTYRVVSVLTVLHQDWLNGKEYKCKVSNKALPAPIEKTISKAKGQPREPQVYTLPPSREEMTKNQVSLWCLVKGFYPSDIAVEWESNGQPENNYKTTPPVLDSDGSFFLYSKLTVDKSRWQQGNVFSCSVMHEALHNHYTQKSLSLSPGK
notes: IgG1; HC1/LC form the CD79b Fab arm; HC2 is the CD3 scFv-Fc arm; Knobs-in-holes; also called CD79bxCD3 bsAb; CD9B330-N31S x CD3B2030-N106A
Consider B1, for which the figures for the Kd in assay [1] and in [2] were 0.022 nM and 0.58 nM, respectively. For the same molecule, the EC50 in assay [3] was 97 nM; in assay [4], 44 nM; in assay [5], 44 nM; in [6], 97 nM.

B2: 79C3B651 (bispecific antibody, human IgG1, kappa, L234A L235A)
heavy: QVQLQESGPGLVKPSQTLSLTCTVSGVSISNYYWSWIRQPPGKGLEWIGRISPSGRTNYNPSLKSRVTMSLDASKNQFSLKLSSVTAADTAVYYCARGEYSGTYSYSFDIWGQGTMVTVSSASTKGPSVFPLAPSSKSTSGGTAALGCLVKDYFPEPVTVSWNSGALTSGVHTFPAVLQSSGLYSLSSVVTVPSSSLGTQTYICNVNHKPSNTKVDKKVEPKSCDKTHTCPPCPAPEAAGGPSVFLFPPKPKDTLMISRTPEVTCVVVSVSHEDPEVKFNWYVDGVEVHNAKTKPREEQYNSTYRVVSVLTVLHQDWLNGKEYKCKVSNKALPAPIEKTISKAKGQPREPQVYTLPPSREEMTKNQVSLSCAVKGFYPSDIAVEWESNGQPENNYKTTPPVLDSDGSFFLVSKLTVDKSRWQQGNVFSCSVMHEALHNRFTQKSLSLSPGK
light: DIQMTQSPSSLSASVGDRVTITCRSSQSLFDSDDGNTYLDWFQQKPGQSPKLLIQTLSYRASGVPSRFSGSGSGTDFTLTISSLQPEDFATYYCMQRMEFPLTFGGGTKVEIKRTVAAPSVFIFPPSDEQLKSGTASVVCLLNNFYPREAKVQWKVDNALQSGNSQESVTEQDSKDSTYSLSSTLTLSKADYEKHKVYACEVTHQGLSSPVTKSFNRGEC
chain: B1 chain
notes: IgG1; HC1/LC form the CD79b Fab arm; HC2 is the CD3 scFv-Fc arm; Knobs-in-holes; also called CD79bxCD3 bsAb; CD9B643 x CD3B2030-N106A
Turning to B2, the Kd was determined as 0.052 nM in [1] and 0.35 nM in assay [2]. The EC50 is 15 nM in [3], 12 nM in [4], 12 nM in [5] and 15 nM in assay [6].

B3: C923B99 (other)
heavy: B2 heavy
light: B2 light
chain: EIVLTQSPATLSASPGERVTLSCSASSSVSYMNWYQQKPGQAPRRWIYDSSKLASGVPARFSGSGSGRDYTLTISSLEPEDFAVYYCQQWSRNPPTFGGGTKVEIKGGSEGKSSGSGSESKSTGGSQVQLVQSGAEVKKPGSSVKVSCKASGYTFTRSTMHWVKQAPGQGLEWIGYINPSSAYTNYNQKFQGRVTLTADKSTSTAYMELSSLRSEDTAVYYCASPQVHYDYAGFPYWGQGTLVTVSSEPKSSDKTHTCPPCPAPEAAGGPSVFLFPPKPKDTLMISRTPEVTCVVVSVSHEDPEVKFNWYVDGVEVHNAKTKPREEQYNSTYRVVSVLTVLHQDWLNGKEYKCKVSNKALPAPIEKTISKAKGQPREPQVYTLPPSREEMTKNQVSLWCLVKGFYPSDIAVEWESNGQPENNYKTTPPVLDSDGSFFLYSKLTVDKSRWQQGNVFSCSVMHEALHNHYTQKSLSLSPGKGGSEGKSSGSGSESKSTGGSAIQLTQSPSSLSASVGDRVTITCRASSSVSYIHWFQQKPGKAPKPLIYATSNLASGVPSRFSGSGSGTDFTLTISSLQPEDFATYYCQQWTSNPPTFGQGTKLEIKGGSEGKSSGSGSESKSTGGSQVQLVQSGAEVKKPGSSVKVSCKASGYTFTSYNMHWVRQAPGQGLEWMGAIYPGNGDTSYAQKFQGRVTITADKSTSTAYMELSSLRSEDTAVYYCARSTYYGGDWYFNVWGQGTLVTVSS
notes: Trispecific IgG1 antibody; HC1/LC form the CD79b Fab; HC2 is CD3 scFv-Fc-linker-CD20 scFv; also called CD79bxCD20xCD3 trispecific; CD9B643 / CD3B2030-N106A-scFv-LH-C20B22
Regarding B3, the results for the Kd in [1] and in assay [2] were 0.04 nM and 0.27 nM, respectively. Further, the EC50 is 8 nM in [7], 6 nM in assay [8] and 2 nM in assay [9].

In general, Kd refers to the constant that tells how readily two partners part at equilibrium. A word on the EC50: it is the concentration giving half of the maximal effect.
